Our source for the IC50, inhibition of CD86 expression on CD19 gated B cells values is patent US20130079280A1.

The target of the assay is Murine CD40L on the Th2 cell line D10.G4.1 (murine) (UniProt P27548). The assay can be described thus: cell-based or functional assay.
Sequence of Murine CD40L on the Th2 cell line D10.G4.1 (murine) (P27548 whole entry): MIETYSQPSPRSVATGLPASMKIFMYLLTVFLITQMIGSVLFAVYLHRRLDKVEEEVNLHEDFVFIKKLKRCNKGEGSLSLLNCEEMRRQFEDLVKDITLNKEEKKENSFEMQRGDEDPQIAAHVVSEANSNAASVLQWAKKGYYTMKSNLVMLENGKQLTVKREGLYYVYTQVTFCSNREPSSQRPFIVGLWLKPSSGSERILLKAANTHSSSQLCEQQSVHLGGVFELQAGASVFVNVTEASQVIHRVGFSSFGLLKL

Substance MR1, anti-murine CD40L antibody registered an IC50, inhibition of CD86 expression on CD19 gated B cells of 100 pM.
